Experiments:
RIP1 = molecular target: T1, RIP1 (UniProt Q13546 1-671, limits assumed); assay: co-immunoprecipitation with MAVS antibody, overexpression in HEK293 cells (FIG. 12A)
T1 construct: also called RIPI
T1 sequence (looked up): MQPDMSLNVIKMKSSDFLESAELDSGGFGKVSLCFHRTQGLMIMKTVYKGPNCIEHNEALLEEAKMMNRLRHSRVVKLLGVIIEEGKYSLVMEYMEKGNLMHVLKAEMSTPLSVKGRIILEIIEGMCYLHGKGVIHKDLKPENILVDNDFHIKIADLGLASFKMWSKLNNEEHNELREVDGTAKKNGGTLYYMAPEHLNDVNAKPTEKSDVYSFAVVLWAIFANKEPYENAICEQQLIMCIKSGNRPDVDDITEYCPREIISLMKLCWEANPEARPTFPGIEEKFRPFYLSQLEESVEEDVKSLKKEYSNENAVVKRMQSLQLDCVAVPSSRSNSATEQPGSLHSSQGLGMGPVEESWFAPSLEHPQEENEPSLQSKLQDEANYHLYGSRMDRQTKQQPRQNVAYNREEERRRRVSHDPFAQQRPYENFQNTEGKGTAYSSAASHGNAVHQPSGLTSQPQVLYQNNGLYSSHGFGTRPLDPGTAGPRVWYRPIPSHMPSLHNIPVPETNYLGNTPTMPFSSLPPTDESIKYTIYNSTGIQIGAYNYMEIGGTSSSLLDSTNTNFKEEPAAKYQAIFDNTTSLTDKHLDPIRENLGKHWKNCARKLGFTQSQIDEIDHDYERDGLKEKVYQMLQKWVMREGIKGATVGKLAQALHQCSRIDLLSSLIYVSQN

FADD = molecular target: T2, FADD (UniProt Q13158 1-208, limits assumed); assay: as above
T2 sequence (looked up): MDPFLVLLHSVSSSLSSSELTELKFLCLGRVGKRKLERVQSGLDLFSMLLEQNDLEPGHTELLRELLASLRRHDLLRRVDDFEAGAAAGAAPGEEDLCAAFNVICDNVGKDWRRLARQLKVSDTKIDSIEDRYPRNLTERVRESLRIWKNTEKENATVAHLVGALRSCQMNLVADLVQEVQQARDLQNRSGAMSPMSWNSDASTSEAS

B1: HA-MAVS (N-terminal HA-tagged Mitochondrial Anti-Viral Signaling protein) (other)
chain: MPFAEDKTYKYICRNFSNFCNVDVVEILPYLPCLTARDQDRLRATCTLSGNRDTLWHLFNTLQRRPGWVEYFIAALRGCELVDLADEVASVYESYQPRTSDRPPDPLEPPSLPAERPGPPTPAAAHSIPYNSCREKEPSYPMPVQETQAPESPGENSEQALQTLSPRAIPRNPDGGPLESSSDLAALSPLTSSGHQEKDTELGSTHTAGATSSLTPSRGPVSPSVSFQPLARSTPRASRLPGPTGSVVSTGTSFSSSSPGLASAGAAEGKQGAESDQAEPIICSSGAEAPANSLPSKVPTTLMPVNTVALKVPANPASVSTVPSKLPTSSKPPGAVPSNALTNPAPSKLPINSTRAGMVPSKVPTSMVLTKVSASTVPTDGSSRNEETPAAPTPAGATGGSSAWLDSSFENRGLGSELSKPGVLASQVDSPFSGCFEDLAISASTSLGMGPCHGPEENEYKSEGTFGIHVAENPSIQLLEGNPGPPADPDGGPRPQADRKFQEREVPCHRPSPGALWLQVAVTGVLVVTLLVVLYRRRLH
notes: also called KIAA1271; pEF-HA-MAVS; not shown: N-terminal HA tag
B1: no binding (RIP1); no binding (FADD).
